Data from US9028824 (dated 2015).
Where two headings read alike, the source gives them in different places. Values belong to the binder of their own block, whether it stands above or below them.

How the values were obtained:
CD40 ECD-IgG1 fusion [1] = molecular target: T1, CD40 ECD-IgG1 fusion (human, UniProt P25942); test: other, up to 700 nM
[2] = molecular target: T2, CD137 (4-1BB) ECD-IgG1 fusion (human, UniProt Q07011); test: other, up to 700 nM
[3] = molecular target: T3, CD271 (NGF receptor) ECD-IgG1 fusion (human, UniProt P08138); test: other, up to 700 nM
T3 chain: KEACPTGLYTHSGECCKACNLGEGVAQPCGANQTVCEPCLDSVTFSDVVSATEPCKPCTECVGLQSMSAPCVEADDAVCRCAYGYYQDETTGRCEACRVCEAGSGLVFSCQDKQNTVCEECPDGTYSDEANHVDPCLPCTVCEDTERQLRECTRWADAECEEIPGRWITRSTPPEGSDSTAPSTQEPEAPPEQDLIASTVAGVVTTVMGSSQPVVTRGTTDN

human OX40R on cells [4] = molecular target: T4, human OX40R on cells (human, UniProt P43489); test: FACS, CD3/CD28 stimulated T cells
T4 chain: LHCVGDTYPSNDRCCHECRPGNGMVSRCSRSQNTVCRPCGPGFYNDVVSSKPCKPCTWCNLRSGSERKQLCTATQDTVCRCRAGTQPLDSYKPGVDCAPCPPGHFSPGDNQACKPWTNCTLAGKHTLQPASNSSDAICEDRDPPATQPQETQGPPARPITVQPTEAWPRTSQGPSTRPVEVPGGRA

human OX40R on cells [5] = molecular target: T4, human OX40R on cells; test: FACS, OX40R+ 300-19 cells
murine OX40R ECD fusion = molecular target: T5, murine OX40R ECD fusion (mouse, UniProt P47741); test: ELISA
T5 chain: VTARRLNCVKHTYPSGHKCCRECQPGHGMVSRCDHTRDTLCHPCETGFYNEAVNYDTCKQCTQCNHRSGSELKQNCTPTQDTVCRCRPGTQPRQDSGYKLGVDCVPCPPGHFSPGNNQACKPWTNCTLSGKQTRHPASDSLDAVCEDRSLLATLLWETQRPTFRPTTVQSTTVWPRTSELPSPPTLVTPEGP

[6] = molecular target: T6, human OX40R extracellular domain fusion protein (CD134-muIg) (human, UniProt P43489); test: ELISA
T6 chain: T4 chain

[7] = molecular target: T3, CD271 (NGF receptor) ECD-IgG1 fusion; test: other, up to 700 nM
human OX40R on cells [8] = molecular target: T4, human OX40R on cells; test: FACS, human T cells
CD40 ECD-IgG1 fusion [9] = molecular target: T1, CD40 ECD-IgG1 fusion; test: other, up to 700 nM; remark: listed apart in the source
[10] = molecular target: T2, CD137 (4-1BB) ECD-IgG1 fusion; test: other, up to 700 nM; remark: listed apart in the source
[11] = molecular target: T6, human OX40R extracellular domain fusion …; test: SPR

T1 sequence (P25942 21-193): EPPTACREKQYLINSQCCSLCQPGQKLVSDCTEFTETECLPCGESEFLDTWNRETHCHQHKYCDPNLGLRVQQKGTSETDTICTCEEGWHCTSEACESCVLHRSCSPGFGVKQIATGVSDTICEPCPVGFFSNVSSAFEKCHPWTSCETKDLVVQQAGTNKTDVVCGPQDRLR
T2 sequence (Q07011 24-186): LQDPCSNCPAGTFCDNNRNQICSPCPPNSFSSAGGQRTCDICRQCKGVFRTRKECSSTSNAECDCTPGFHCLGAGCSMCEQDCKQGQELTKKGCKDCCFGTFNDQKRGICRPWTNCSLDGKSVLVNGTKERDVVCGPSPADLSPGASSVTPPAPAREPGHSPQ

binding result (CD40 ECD-IgG1 fusion [1]): no binding | binding result [2]: no binding | binding result [3]: no binding
B1: 18D8 (antibody, V domains shown)
VH: EVQLVESGGGLVQPGRSLRLSCAASGFTFDDYAMHWVRQAPGKGLEWVSGISWNSGSIGYADSVKGRFTISRDNAKNSLYLQMNSLRAEDTALYYCAKDQSTADYYFYYGMDVWGQGTTVTVSS
VL: EIVVTQSPATLSLSPGERATLSCRASQSVSSYLAWYQQKPGQAPRLLIYDASNRATGIPARFSGSGSGTDFTLTISSLEPEDFAVYYCQQRSNWPTFGQGTKVEIK

EC50 (human OX40R on cells [4]): 4 nM | EC50 (human OX40R on cells [5]): 1.7 nM | binding result (murine OX40R ECD fusion): no binding | EC50 [6]: 3.5 nM | binding result [7]: no binding | EC50 (human OX40R on cells [8]): 0.566 µg/mL | binding result (CD40 ECD-IgG1 fusion [9]): no binding | binding result [10]: no binding | Kd [11]: 0.48 nM
B2: 11D4 (antibody, V domains shown)
VH: EVQLVESGGGLVQPGGSLRLSCAASGFTFSSYSMNWVRQAPGKGLEWVSYISSSSSTIDYADSVKGRFTISRDNAKNSLYLQMNSLRDEDTAVYYCARESGWYLFDYWGQGTLVTVSS
VL: DIQMTQSPSSLSASVGDRVTITCRASQGISSWLAWYQQKPEKAPKSLIYAASSLQSGVPSRFSGSGSGTDFTLTISSLQPEDFATYYCQQYNSYPPTFGGGTKVEIK
